T1: cynomolgus monkey TLR4 expressed on stably transfected CHO-K1 cells (cynomolgus monkey, UniProt Q9TSP2 24-826 (Papio anubis entry))
T1 construct: Transfected alone; also called CHO cells expressing the cynomolgus monkey TLR4
T1 chain: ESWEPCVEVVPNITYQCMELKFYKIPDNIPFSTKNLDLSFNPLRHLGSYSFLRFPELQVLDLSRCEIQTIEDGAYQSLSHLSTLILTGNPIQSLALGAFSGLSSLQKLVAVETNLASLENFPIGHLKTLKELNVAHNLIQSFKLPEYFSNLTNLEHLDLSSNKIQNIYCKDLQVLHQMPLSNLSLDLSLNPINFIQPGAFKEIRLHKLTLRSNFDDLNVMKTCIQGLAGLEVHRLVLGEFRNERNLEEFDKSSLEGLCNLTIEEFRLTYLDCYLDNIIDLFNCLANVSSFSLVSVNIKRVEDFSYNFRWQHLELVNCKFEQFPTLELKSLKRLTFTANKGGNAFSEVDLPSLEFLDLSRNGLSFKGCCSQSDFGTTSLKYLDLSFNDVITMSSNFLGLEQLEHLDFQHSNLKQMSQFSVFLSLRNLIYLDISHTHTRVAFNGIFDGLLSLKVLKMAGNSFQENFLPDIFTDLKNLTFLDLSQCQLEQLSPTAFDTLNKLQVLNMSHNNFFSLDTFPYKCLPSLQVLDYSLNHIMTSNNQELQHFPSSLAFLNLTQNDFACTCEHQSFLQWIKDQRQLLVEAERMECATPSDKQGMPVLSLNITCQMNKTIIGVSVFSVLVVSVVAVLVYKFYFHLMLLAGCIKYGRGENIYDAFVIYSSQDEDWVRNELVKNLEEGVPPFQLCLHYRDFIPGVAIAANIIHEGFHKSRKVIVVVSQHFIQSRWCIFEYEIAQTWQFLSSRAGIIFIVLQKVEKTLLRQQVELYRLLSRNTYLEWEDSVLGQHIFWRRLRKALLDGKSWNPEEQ


Tests used:
[1] = molecular target: T2, soluble histidine-tagged form of human TLR4/MD2 complex (human, UniProt Q9Y6Y9 19-160); assay: competitive ELISA; 15C1 reference EC50 divided by variant EC50
T2 sequence (Q9Y6Y9 19-160, one chain of several): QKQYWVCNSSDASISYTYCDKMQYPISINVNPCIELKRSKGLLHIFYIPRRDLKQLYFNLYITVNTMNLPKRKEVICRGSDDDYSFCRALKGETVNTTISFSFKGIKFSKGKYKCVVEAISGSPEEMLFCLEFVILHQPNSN
Experimental: (§1) The VH and VL cDNA sequences in their appropriate expression vectors were transfected into mammalian cells using the Fugene 6 Transfection Reagent (Roche, Basel, Switzerland). Briefly, Peak cells were cultured in 6-well plates at a concentration of 6×10⁵ cells per well in 2 mL culture media containing fetal bovine serum. The expression vectors, encoding the candidate VH and VL sequences, were co-transfected into the cells using the Fugene 6 Transfection Reagent according to manufacturer's instructions. One day following transfection, the culture media was aspirated, and 3 mL of fresh serum-free media was added to cells and cultured for three days at 37° C. Following three days culture period, the supernatant was harvested for IgG purified on protein G-Sepharose 4B fast flow columns (Sigma, St. Louis, Mo.) according to manufacturer's instructions. Briefly, supernatants from transfected cells were incubated overnight at 4° C. with ImmunoPure (G) IgG binding buffer (Pierce, Rockford Ill.). Samples were then passed over Protein G-Sepharose 4B fast flow columns and the IgG consequently purified using elution buffer. The eluted IgG fraction was then dialyzed against PBS and the IgG content quantified by absorption at 280 nm. Purity and IgG integrity were verified by SDS-PAGE. Relative binding potency of 1E11 variants was assessed by competitive ELISA. Briefly, 15C1 antibody was coated overnight in a 96-well Maxisorp plate and then blocked with PBS-BSA. The 15C1 reference antibody and affinity matured variants of 1E11 were added to the plate at a fixed concentration and a 3.5-fold serial dilution of the samples was performed. Then, soluble histidine-tagged form of human TLR4/MD2 complex was added to the plate at a fixed concentration. After incubation one hour at 37° C., the plate was washed and a solution of Penta-His-HRP antibody was distributed, this step was followed by an additional incubation time of one hour at 37° C. Finally, the plate was washed and TMB was added for colorimetric revelation, the enzymatic reaction is stopped by H₂SO₄ solution. The results were determined according to the absorbance at 450 nm. The relative binding potency was calculated by dividing the reference EC₅₀ with affinity matured variants EC₅₀ (Table 8).

[2] = molecular target: T1, cynomolgus monkey TLR4 expressed on …; assay: summary grade (species binding potential); assay not given
[3] = molecular target: T2, soluble histidine-tagged form of human …; assay: competitive ELISA; coated 15C1 as competitor, soluble His-tagged human TLR4/MD2, Penta-His-HRP
Experimental: as §1

Binder	Relative binding potency increase [1] [fold]	binding result [2]	EC50 [3] [µg/mL]
1E11 antibody (IgG1 reformatted) (antibody, V domains shown, also called 1E11 Mab) VH: QVQLQESGPGLVKPSDTLSLTCAVSGYSITGGYSWHWIRQPPGKGLEWMGYIHYSGYTDFNPSLKTRITISRDTSKNQFSLKLSSVTAVDTAVYYCARKDSGNYFPYWGQGTLVTVSS VL: EIVLTQSPDFQSVTPKEKVTITCRASQSISDHLHWYQQKPDQSPKLLIKYASHAISGVPSRFSGSGSGTDFTLTINSLEAEDAATYYCQQGHSFPLTFGGGTKVEIKR	–	binds	–
1E11.E5 antibody (IgG1) (antibody, V domains shown) VH: QVQLQESGPGLVKPSDTLSLTCAVSGYSITGGYSWHWIRQPPGKGLEWMGYIHYSGYTDFNPSLKTRITISRDTSKNQFSLKLSSVTAVDTAVYYCARKDSGNYFPYWGQGTLVTVSS VL: EIVLTQSPDFQSVTPKEKVTITCRASQSISDHLHWYQQKPDQSPKLLIKYASHAISGVPSRFSGSGSGTDFTLTINSLEAEDAATYYCQQGYEFPLTFGGGTKVEIK	4	binds	0.152
1E11.E3 antibody (IgG1) (antibody, V domains shown) VH: QVQLQESGPGLVKPSDTLSLTCAVSGYSITGGYSWHWIRQPPGKGLEWMGYIHYSGYTDFNPSLKTRITISRDTSKNQFSLKLSSVTAVDTAVYYCARKDSGNYFPYWGQGTLVTVSS VL: EIVLTQSPDFQSVTPKEKVTITCRASQSISDHLHWYQQKPDQSPKLLIKYASHAISGVPSRFSGSGSGTDFTLTINSLEAEDAATYYCQQGYDFPLTFGGGTKVEIK	5	binds	0.126
1E11.E4 antibody (IgG1) (antibody, V domains shown) VH: QVQLQESGPGLVKPSDTLSLTCAVSGYSITGGYSWHWIRQPPGKGLEWMGYIHYSGYTDFNPSLKTRITISRDTSKNQFSLKLSSVTAVDTAVYYCARKDSGNYFPYWGQGTLVTVSS VL: EIVLTQSPDFQSVTPKEKVTITCRASQSISDHLHWYQQKPDQSPKLLIKYASHAISGVPSRFSGSGSGTDFTLTINSLEAEDAATYYCQQGYDYPLTFGGGTKVEIK	5	binds	0.13
1E11.C5 antibody (IgG1) (antibody, V domains shown) VH: QVQLQESGPGLVKPSDTLSLTCAVSGYPIWGGYSWHWIRQPPGKGLEWMGYIHYSGYTDFNPSLKTRITISRDTSKNQFSLKLSSVTAVDTAVYYCARKDSGNYFPYWGQGTLVTVSS VL: EIVLTQSPDFQSVTPKEKVTITCRASQSISDHLHWYQQKPDQSPKLLIKYASHAISGVPSRFSGSGSGTDFTLTINSLEAEDAATYYCQQGHSFPLTFGGGTKVEIK	7	binds	0.087

The remaining lines, values ahead:

Relative binding potency increase [1] [fold]	binding result [2]	EC50 [3] [µg/mL]	Binder
29	binds	0.021	1E11.C2E1 antibody (IgG1) (antibody, V domains shown) VH: QVQLQESGPGLVKPSDTLSLTCAVSGYPIRFGYSWHWIRQPPGKGLEWMGYIHYSGYTDFNPSLKTRITISRDTSKNQFSLKLSSVTAVDTAVYYCARKDSGNYFPYWGQGTLVTVSS VL: EIVLTQSPDFQSVTPKEKVTITCRASQSISDHLHWYQQKPDQSPKLLIKYASHAISGVPSRFSGSGSGTDFTLTINSLEAEDAATYYCQQGNDFPVTFGGGTKVEIK
4	binds	0.157	1E11.E1 antibody (IgG1) (antibody, V domains shown) VH: QVQLQESGPGLVKPSDTLSLTCAVSGYSITGGYSWHWIRQPPGKGLEWMGYIHYSGYTDFNPSLKTRITISRDTSKNQFSLKLSSVTAVDTAVYYCARKDSGNYFPYWGQGTLVTVSS VL: EIVLTQSPDFQSVTPKEKVTITCRASQSISDHLHWYQQKPDQSPKLLIKYASHAISGVPSRFSGSGSGTDFTLTINSLEAEDAATYYCQQGNDFPVTFGGGTKVEIK
40	binds	0.015	1E11.C2E4 antibody (IgG1) (antibody, V domains shown) VH: QVQLQESGPGLVKPSDTLSLTCAVSGYPIRFGYSWHWIRQPPGKGLEWMGYIHYSGYTDFNPSLKTRITISRDTSKNQFSLKLSSVTAVDTAVYYCARKDSGNYFPYWGQGTLVTVSS VL: EIVLTQSPDFQSVTPKEKVTITCRASQSISDHLHWYQQKPDQSPKLLIKYASHAISGVPSRFSGSGSGTDFTLTINSLEAEDAATYYCQQGYDYPLTFGGGTKVEIK
2	binds	0.315	1E11.E2 antibody (IgG1) (antibody, V domains shown) VH: QVQLQESGPGLVKPSDTLSLTCAVSGYSITGGYSWHWIRQPPGKGLEWMGYIHYSGYTDFNPSLKTRITISRDTSKNQFSLKLSSVTAVDTAVYYCARKDSGNYFPYWGQGTLVTVSS VL: EIVLTQSPDFQSVTPKEKVTITCRASQSISDHLHWYQQKPDQSPKLLIKYASHAISGVPSRFSGSGSGTDFTLTINSLEAEDAATYYCQQGYDEPFTFGGGTKVEIK
36	binds	0.017	1E11.C2E5 antibody (IgG1) (antibody, V domains shown) VH: QVQLQESGPGLVKPSDTLSLTCAVSGYPIRFGYSWHWIRQPPGKGLEWMGYIHYSGYTDFNPSLKTRITISRDTSKNQFSLKLSSVTAVDTAVYYCARKDSGNYFPYWGQGTLVTVSS VL: EIVLTQSPDFQSVTPKEKVTITCRASQSISDHLHWYQQKPDQSPKLLIKYASHAISGVPSRFSGSGSGTDFTLTINSLEAEDAATYYCQQGYEFPLTFGGGTKVEIK
10	binds	0.061	1E11.C6 antibody (IgG1) (antibody, V domains shown) VH: QVQLQESGPGLVKPSDTLSLTCAVSGYPIGGGYSWHWIRQPPGKGLEWMGYIHYSGYTDFNPSLKTRITISRDTSKNQFSLKLSSVTAVDTAVYYCARKDSGNYFPYWGQGTLVTVSS VL: EIVLTQSPDFQSVTPKEKVTITCRASQSISDHLHWYQQKPDQSPKLLIKYASHAISGVPSRFSGSGSGTDFTLTINSLEAEDAATYYCQQGHSFPLTFGGGTKVEIK
5	binds	0.119	1E11.C3 antibody (IgG1) (antibody, V domains shown) VH: QVQLQESGPGLVKPSDTLSLTCAVSGYPIRHGYSWHWIRQPPGKGLEWMGYIHYSGYTDFNPSLKTRITISRDTSKNQFSLKLSSVTAVDTAVYYCARKDSGNYFPYWGQGTLVTVSS VL: EIVLTQSPDFQSVTPKEKVTITCRASQSISDHLHWYQQKPDQSPKLLIKYASHAISGVPSRFSGSGSGTDFTLTINSLEAEDAATYYCQQGHSFPLTFGGGTKVEIK
12	–	0.052	1E11.C1 antibody (IgG1 reformatted) (antibody, V domains shown, VH 67 / VL 4 are the variable domains) VH: QVQLQESGPGLVKPSDTLSLTCAVSGFPIRYGYSWHWIRQPPGKGLEWMGYIHYSGYTDFNPSLKTRITISRDTSKNQFSLKLSSVTAVDTAVYYCARKDSGNYFPYWGQGTLVTVSS VL: EIVLTQSPDFQSVTPKEKVTITCRASQSISDHLHWYQQKPDQSPKLLIKYASHAISGVPSRFSGSGSGTDFTLTINSLEAEDAATYYCQQGHSFPLTFGGGTKVEIKR

Source: patent US20130315914A1 (NOVIMMUNE, published 2013)
